Measured values from the Immune Epitope Database (IEDB).

Assays:
HLA-B*27:03 = assay: IEDB peptide-MHC binding, purified MHC/competitive/fluorescence; filed as Kd, often an IC50 or EC50 that approximates it; ≥ and ≤ were set here for values at or beyond the usual limits of such assays
HLA-A*69:01 [1] = assay: as above
HLA-B*39:01 [2] = assay: as above
HLA-B*18:01 [3] = assay: as above
HLA-B*15:17 = assay: as above
HLA-B*15:01 [4] = assay: as above
HLA-B*51:01 [5] = assay: as above
HLA-A*26:01 [6] = assay: as above
HLA-B*57:01 [7] = assay: as above
HLA-B*46:01 [8] = assay: as above
HLA-A*68:02 = assay: IEDB peptide-MHC binding, purified MHC/direct/fluorescence; filed as Kd, often an IC50 or EC50 that approximates it; ≥ and ≤ were set here for values at or beyond the usual limits of such assays
HLA-A*24:03 = assay: as above
HLA-A*29:02 = assay: as above
HLA-A*02:01 [9] = assay: as above
HLA-A*03:01 [10] = assay: as above
HLA-B*40:01 [11] = assay: IEDB peptide-MHC binding, purified MHC/competitive/radioactivity; filed as Kd, often an IC50 or EC50 that approximates it; ≥ and ≤ were set here for values at or beyond the usual limits of such assays; conditions: source organism: Dengue virus 2 Jamaica/1409/1983
HLA-A*30:01 = assay: as above; conditions: source organism: Dengue virus 2 Jamaica/1409/1983
HLA-B*51:01 [12] = assay: IEDB peptide-MHC binding, purified MHC/direct/fluorescence; filed as Kd, often an IC50 or EC50 that approximates it; ≥ and ≤ were set here for values at or beyond the usual limits of such assays
HLA-A*69:01 [13] = assay: as above
HLA-A*02:19 = assay: as above
HLA-B*39:01 [14] = assay: as above
HLA-B*18:01 [15] = assay: as above
HLA-A*26:01 [16] = assay: as above; conditions: source organism: Bacillus anthracis str. A0465
HLA-A*02:03 = assay: as above
HLA-B*46:01 [17] = assay: as above
HLA-B*40:01 [18] = assay: as above
HLA-B*15:01 [19] = assay: as above
HLA-A*02:12 = assay: as above
HLA-B*57:01 [20] = assay: as above
HLA-A*31:01 = assay: as above
HLA-A*01:01 = assay: as above
HLA-B*58:01 = assay: as above
HLA-B*07:02 = assay: as above
HLA-B*44:02 = assay: as above
HLA-A*02:01 [21] = assay: IEDB peptide-MHC binding, purified MHC/competitive/fluorescence; filed as Kd, often an IC50 or EC50 that approximates it; ≥ and ≤ were set here for values at or beyond the usual limits of such assays; conditions: source organism: Orthohantavirus negraense
HLA-A*03:01 [22] = assay: as above; conditions: source organism: Orthohantavirus negraense
HLA-A*02:16 = assay: IEDB peptide-MHC binding, purified MHC/direct/fluorescence; filed as Kd, often an IC50 or EC50 that approximates it; ≥ and ≤ were set here for values at or beyond the usual limits of such assays; conditions: source organism: Orthohantavirus negraense
HLA-B*27:05 = assay: as above
HLA-B*48:01 = assay: as above
HLA-A*11:01 = assay: as above; conditions: source organism: Yellow fever virus
HLA-A*02:11 = assay: as above; conditions: source organism: Sudan ebolavirus
[23] = source organism: Zaire ebolavirus
[24] = source organism: Bacillus anthracis str. A0465
[25] = source organism: Reston ebolavirus - Reston
[26] = source organism: Orthohantavirus negraense
[27] = source organism: Yellow fever virus
[28] = source organism: Sudan ebolavirus
[29] = source organism: Sudan virus - Boniface, Sudan,1976

Which results are given for KLWTSISCA?
Kd (HLA-B*27:03; [23]): ≥ 20 µM; Kd (HLA-A*69:01 [1]; [23]): ≥ 20 µM; Kd (HLA-B*39:01 [2]; [23]): ≥ 20 µM; Kd (HLA-B*18:01 [3]; [23]): ≥ 20 µM; Kd (HLA-B*15:17; [23]): ≥ 20 µM; Kd (HLA-B*15:01 [4]; [23]): ≥ 20 µM; Kd (HLA-B*51:01 [5]; [23]): ≥ 20 µM; Kd (HLA-A*26:01 [6]; [23]): ≥ 20 µM; Kd (HLA-B*57:01 [7]; [23]): ≥ 20 µM; Kd (HLA-B*46:01 [8]; [23]): ≥ 20 µM; Kd (HLA-A*68:02; [23]): ≥ 20 µM; Kd (HLA-A*24:03; [23]): ≥ 20 µM; Kd (HLA-A*29:02; [23]): ≥ 20 µM; Kd (HLA-A*02:01 [9]; source organism: Sudan ebolavirus - Maleo (1979)): 0.0082 µM; Kd (HLA-A*03:01 [10]; [23]): ≥ 20 µM

Which results are given for RERLSRMAI?
Kd (HLA-B*40:01 [11]): 0.0296 µM; Kd (HLA-A*30:01): 0.828 µM; Kd (HLA-B*51:01 [12]; source organism: dengue virus type 2): ≥ 20 µM

What does the source list for RLLRFTGLF?
Kd (HLA-A*68:02; [24]): ≥ 20 µM; Kd (HLA-A*69:01 [13]; [24]): ≥ 20 µM; Kd (HLA-A*02:19; [24]): ≥ 20 µM; Kd (HLA-B*39:01 [14]; [24]): ≥ 20 µM; Kd (HLA-B*18:01 [15]; [24]): ≥ 20 µM; Kd (HLA-B*51:01 [12]; [24]): ≥ 20 µM; Kd (HLA-A*26:01 [16]): ≥ 20 µM; Kd (HLA-A*02:03; [24]): ≥ 20 µM; Kd (HLA-B*46:01 [17]; [24]): ≥ 20 µM

How did the Kd (HLA-B*51:01 [12]; source organism: Yellow fever virus 17D) turn out when RVSSDQSAL was run?
Its Kd is ≥ 20 µM.

How did the Kd (HLA-B*27:03; [23]) turn out when SKLRALLTL was run?
The Kd was ≥ 20 µM.

And the Kd (HLA-B*15:17; [23])?
The Kd was ≥ 20 µM.

And the Kd (HLA-B*51:01 [5]; [23])?
The Kd was ≥ 20 µM.

And the Kd (HLA-A*26:01 [6]; [23])?
Its Kd is ≥ 20 µM.

And the Kd (HLA-A*68:02; [23])?
The Kd was ≥ 20 µM.

And the Kd (HLA-A*24:03; [23])?
Its Kd is ≥ 20 µM.

And the Kd (HLA-A*69:01 [13]; [25])?
The Kd was ≥ 20 µM.

And the Kd (HLA-B*39:01 [14]; [25])?
Its Kd is 0.618 µM.

What about the Kd (HLA-B*40:01 [18]; [25]) of the same sequence?
The Kd was ≥ 20 µM.

What about the Kd (HLA-B*18:01 [15]; [25]) of the same sequence?
The Kd was ≥ 20 µM.

And the Kd (HLA-B*15:01 [19]; [25])?
The Kd was ≥ 20 µM.

And the Kd (HLA-A*29:02; [25])?
The Kd was ≥ 20 µM.

What about the Kd (HLA-A*02:12; [23]) of the same sequence?
The Kd was ≥ 20 µM.

And the Kd (HLA-B*57:01 [20]; [25])?
The Kd was ≥ 20 µM.

And the Kd (HLA-A*02:03; [23])?
The Kd was ≥ 20 µM.

And the Kd (HLA-A*02:01 [9]; [25])?
The Kd was ≥ 20 µM.

What about the Kd (HLA-A*31:01; [25]) of the same sequence?
Its Kd is ≥ 20 µM.

What about the Kd (HLA-A*01:01; [25]) of the same sequence?
The Kd was ≥ 20 µM.

And the Kd (HLA-B*46:01 [17]; [25])?
The Kd was ≥ 20 µM.

What about the Kd (HLA-B*58:01; [25]) of the same sequence?
Its Kd is ≥ 20 µM.

What about the Kd (HLA-B*07:02; [25]) of the same sequence?
Its Kd is ≥ 20 µM.

What about the Kd (HLA-A*03:01 [10]; [25]) of the same sequence?
Its Kd is ≥ 20 µM.

And the Kd (HLA-B*44:02; [25])?
The Kd was ≥ 20 µM.

What does the source list for SLLFREVWK?
Kd (HLA-B*27:03; [26]): ≥ 20 µM; Kd (HLA-A*69:01 [1]; [26]): ≥ 20 µM; Kd (HLA-B*39:01 [2]; [26]): ≥ 20 µM; Kd (HLA-B*18:01 [3]; [26]): ≥ 20 µM; Kd (HLA-B*15:17; [26]): ≥ 20 µM; Kd (HLA-B*15:01 [4]; [26]): ≥ 20 µM; Kd (HLA-B*51:01 [5]; [26]): ≥ 20 µM; Kd (HLA-A*26:01 [6]; [26]): ≥ 20 µM; Kd (HLA-B*57:01 [7]; [26]): ≥ 20 µM; Kd (HLA-A*02:01 [21]): ≥ 20 µM; Kd (HLA-B*46:01 [8]; [26]): ≥ 20 µM; Kd (HLA-A*03:01 [22]): 0.0374 µM; Kd (HLA-A*24:03; [26]): ≥ 20 µM; Kd (HLA-A*02:19; [26]): ≥ 20 µM; Kd (HLA-A*29:02; [26]): ≥ 20 µM; Kd (HLA-A*02:12; [26]): ≥ 20 µM; Kd (HLA-A*02:03; [26]): ≥ 20 µM; Kd (HLA-A*02:16): ≥ 20 µM

How did the Kd (HLA-A*69:01 [13]; [27]) turn out when TKDTNDNNL was run?
Its Kd is ≥ 20 µM.

What about the Kd (HLA-B*27:05; [27]) of the same sequence?
Its Kd is ≥ 20 µM.

What about the Kd (HLA-B*48:01; [27]) of the same sequence?
Its Kd is ≥ 20 µM.

What about the Kd (HLA-B*40:01 [18]; [27]) of the same sequence?
The Kd was ≥ 20 µM.

And the Kd (HLA-B*18:01 [15]; [27])?
The Kd was ≥ 20 µM.

And the Kd (HLA-B*15:01 [19]; [27])?
Its Kd is ≥ 20 µM.

What about the Kd (HLA-A*29:02; [27]) of the same sequence?
Its Kd is ≥ 20 µM.

What about the Kd (HLA-A*11:01) of the same sequence?
Its Kd is ≥ 20 µM.

And the Kd (HLA-B*57:01 [20]; [27])?
The Kd was ≥ 20 µM.

And the Kd (HLA-A*02:01 [9]; [27])?
The Kd was ≥ 20 µM.

What about the Kd (HLA-A*31:01; [27]) of the same sequence?
The Kd was ≥ 20 µM.

And the Kd (HLA-A*01:01; [27])?
The Kd was ≥ 20 µM.

And the Kd (HLA-B*46:01 [17]; [27])?
Its Kd is ≥ 20 µM.

And the Kd (HLA-B*58:01; [27])?
The Kd was ≥ 20 µM.

What about the Kd (HLA-B*07:02; [27]) of the same sequence?
Its Kd is ≥ 20 µM.

What about the Kd (HLA-A*03:01 [10]; [27]) of the same sequence?
The Kd was ≥ 20 µM.

What about the Kd (HLA-B*44:02; [27]) of the same sequence?
The Kd was ≥ 20 µM.

What does the source list for TMMRHRREL?
Kd (HLA-B*27:03; [28]): ≥ 20 µM; Kd (HLA-B*15:17; [28]): ≥ 20 µM; Kd (HLA-B*51:01 [5]; [28]): ≥ 20 µM; Kd (HLA-A*26:01 [6]; [28]): ≥ 20 µM; Kd (HLA-A*02:11): ≥ 20 µM; Kd (HLA-A*68:02; [28]): ≥ 20 µM; Kd (HLA-A*24:03; [28]): ≥ 20 µM; Kd (HLA-A*69:01 [13]; [29]): ≥ 20 µM; Kd (HLA-A*02:19; [28]): ≥ 20 µM; Kd (HLA-B*39:01 [14]; [29]): ≥ 20 µM; Kd (HLA-B*27:05; [29]): ≥ 20 µM; Kd (HLA-B*48:01; [29]): ≥ 20 µM; Kd (HLA-B*40:01 [18]; [29]): ≥ 20 µM; Kd (HLA-B*18:01 [15]; [29]): ≥ 20 µM; Kd (HLA-B*15:01 [19]; [29]): ≥ 20 µM; Kd (HLA-A*29:02; [29]): ≥ 20 µM; Kd (HLA-A*02:12; [28]): ≥ 20 µM; Kd (HLA-B*57:01 [20]; [29]): ≥ 20 µM; Kd (HLA-A*02:03; [28]): ≥ 20 µM; Kd (HLA-A*02:01 [9]; [29]): ≥ 20 µM; Kd (HLA-A*31:01; [29]): ≥ 20 µM; Kd (HLA-A*01:01; [29]): ≥ 20 µM; Kd (HLA-B*46:01 [17]; [29]): ≥ 20 µM; Kd (HLA-B*58:01; [29]): ≥ 20 µM; Kd (HLA-A*03:01 [10]; [29]): ≥ 20 µM; Kd (HLA-B*44:02; [29]): ≥ 20 µM
